These results are taken from patent publication US20090304651A1 (published 2009).

Numbering of substitutions follows the chain as printed. Numbers in names are those of the source.

Test [1] concerns the target T1, recombinant human IGF-II (Insulin-like Growth Factor II) (human, UniProt P01344 25-91, biotinylated (Biotinyl-IGF-II, GroPep) where immobilised in SPR, site not stated; not biotinylated in ITC and as SPR analyte).
T1 construct: also called IGF2; IGF-2
The test is described as follows: SPR, IGF-II immobilised, steady state. The protocol: Kinetic analysis by Surface Plasmon Resonance (SPR) was conducted on a BIAcore 3000 biosensor (BIAcore, Uppsala, Sweden) at 25° C. in HBS-EP (10 mM HEPES, pH 7.4, 150 mM NaCl, 3 mM EDTA, 0.005% surfactant P20) at a flow rate of 40 μl/min. […] Kinetic experiments consisted of a two minute injection of analyte followed by a 100 s dissociation phase in running buffer, after which the binding surface was regenerated with a 2 minute injection of 2 M MgCl₂. A blank flow cell was used for in-line reference subtraction of changes due to differences in refractive index of running buffer versus sample and a buffer-only injection was used to subtract instrument noise and drift. Injections were performed in duplicate for each concentration and in a randomised order. Kinetic parameters were determined by global fitting of sensorgrams to a two-state (conformational change) binding model using BIAevaluation software version 4.0.1. In all cases the minor component made an insignificant contribution to the overall affinity and as such only the kinetic parameters of the major binding component were used. For each interaction the dissociation affinity constant (KD) was also calculated by fitting of the response of each concentration at equilibrium to a steady-state affinity model using BIAevaluation. […]
Background: SPR reads the build-up and loss of mass on a sensor chip optically.

Test [2] addresses T1, recombinant human IGF-II (Insulin-like …). The test is described as follows: SPR, IGF-II immobilised, major kinetic parameters. The protocol: (§1) Kinetic experiments consisted of a two minute injection of analyte followed by a 100 s dissociation phase in running buffer, after which the binding surface was regenerated with a 2 minute injection of 2 M MgCl₂. A blank flow cell was used for in-line reference subtraction of changes due to differences in refractive index of running buffer versus sample and a buffer-only injection was used to subtract instrument noise and drift. Injections were performed in duplicate for each concentration and in a randomised order. Kinetic parameters were determined by global fitting of sensorgrams to a two-state (conformational change) binding model using BIAevaluation software version 4.0.1. In all cases the minor component made an insignificant contribution to the overall affinity and as such only the kinetic parameters of the major binding component were used. For each interaction the dissociation affinity constant (KD) was also calculated by fitting of the response of each concentration at equilibrium to a steady-state affinity model using BIAevaluation. […]
(§2) The affinity of versions of Fc-tagged domain 11 fusion proteins, and domain 11 constructs, for IGF-II were compared using surface plasmon resonance (BIAcore 3000). […] The Fc-tagged domain 11 kinetic data performed in triplicate generated sensorgrams that were analyzed using a bivalent analyte model.

Test [3] shares this target. Put plainly: SPR, IGF-II immobilised, steady state. The protocol: (§3) Kinetic analysis by Surface Plasmon Resonance (SPR) was conducted on a BIAcore 3000 biosensor (BIAcore, Uppsala, Sweden) at 25° C. in HBS-EP (10 mM HEPES, pH 7.4, 150 mM NaCl, 3 mM EDTA, 0.005% surfactant P20) at a flow rate of 40 μl/min. […] Kinetic experiments consisted of a two minute injection of analyte followed by a 100 s dissociation phase in running buffer, after which the binding surface was regenerated with a 2 minute injection of 2 M MgCl₂. A blank flow cell was used for in-line reference subtraction of changes due to differences in refractive index of running buffer versus sample and a buffer-only injection was used to subtract instrument noise and drift. Injections were performed in duplicate for each concentration and in a randomised order. Kinetic parameters were determined by global fitting of sensorgrams to a two-state (conformational change) binding model using BIAevaluation software version 4.0.1. In all cases the minor component made an insignificant contribution to the overall affinity and as such only the kinetic parameters of the major binding component were used. For each interaction the dissociation affinity constant (KD) was also calculated by fitting of the response of each concentration at equilibrium to a steady-state affinity model using BIAevaluation. In order to investigate the influence of ionic strength, kinetic experiments were conducted in HBS-EP running buffers containing the desired NaCl concentration. In each case, analyte samples were made up in the appropriate running buffer prior to injection.
(§4) Following purification, the binding of each mutant construct to IGF2 was assessed by SPR and compared to the wild type domain 11. Sensorgrams were generated using biotinylated IGF2 immobilised to the cell surface and mutant domain 11 proteins as the free analyte (FIG. 4).
The source holds these as a separate data set.

Test [4] has the same target. Put plainly: SPR, IGF-II immobilised, major kinetic parameter kd1. The protocol: as §1, §2
Test [5] shares this target. The test is described as follows: SPR, steady-state KD relative to wild type. The protocol:
[…]. Values are the mean±S.E.M. of three separate experiments.
as §3
Following purification, the binding of each mutant construct to IGF2 was assessed by SPR and compared to the wild type domain 11.

Test [6] has the same target. Put plainly: SPR, IGF-II immobilised, kinetic fit. The protocol:
as §3, §4

Test [7] has the same target. The test is described as follows: SPR, IGF-II immobilised, major kinetic parameter ka1. The protocol:
as §1, §2

Test [8] shares this target. Put plainly: SPR.

T1 sequence (P01344 25-91 limits assumed): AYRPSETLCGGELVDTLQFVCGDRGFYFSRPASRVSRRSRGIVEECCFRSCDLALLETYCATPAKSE

B1: wild type IGF2R domain 11 (amino acids 1511-1650) with C-terminal His6 tag, from Pichia pastoris (receptor)
chain: NEHDDCQVTNPSTGHLFDLSSLSGRAGFTAAYSEKGLVYMSICGENENCPPGVGACFGQTRISVGKANKRLRYVDQVLQLVYKDGSPCPSKSGLSYKSVISFVCRPEAGPTNRPMLISLDKQTCTLFFSWHTPLACEQATHHHHHH
notes: also called WT; wild type domain 11
As usually defined, the Kd is a measure of binding affinity in units of concentration. In general, koff refers to a measure of how fast the partners let go of each other. Usually kon stands for a measure of how fast the partners come together. Regarding B1, the Kd in test [1] was found to be 0.103 µM; in test [2] it was 0.119 µM; in test [3], 0.103 µM; in test [6], 0.102 µM. Moreover, the koff in test [4] turned out to be 0.0787 s⁻¹; in test [6] it was 0.053 s⁻¹. Further, the “Relative Affinity” value in test [5] was 1 fold (wild type = 1.00). For the same molecule, the values for the kon in test [6] and in test [7] were 525000 M⁻¹ s⁻¹ and 662000 M⁻¹ s⁻¹, respectively.

B2: IGF2R domain 11 E1544A (amino acids 1511-1650, C-terminal His6 tag, from Pichia pastoris) (receptor)
chain: B1 chain with E34A
For the molecule B2, the “relative affinity increase over wild type” value in test [8] is roughly 2.5 fold. For the same molecule, in test [3], the Kd is 0.037 µM. Moreover, the “Relative Affinity” value in test [5] was 2.79 fold (wild type = 1.00). Further, in test [6], the Kd is 0.036 µM, the off-rate constant (koff) amounted to 0.033 s⁻¹ and the kon is 934000 M⁻¹ s⁻¹.

B3: IGF2R domain 11 E1544K (amino acids 1511-1650, C-terminal His6 tag, from Pichia pastoris) (receptor)
chain: B1 chain with E34K
notes: also called enhanced mutant
On to B3, for which the Kd in test [2] amounted to 0.0205 µM. Also, the koff in test [4] was found to be 0.0406 s⁻¹. Besides, the kon in test [7] stood at 2.02e+06 M⁻¹ s⁻¹.
